T1: Kunitz trypsin inhibitor from soybeans (UniProt P01070)
T1 sequence: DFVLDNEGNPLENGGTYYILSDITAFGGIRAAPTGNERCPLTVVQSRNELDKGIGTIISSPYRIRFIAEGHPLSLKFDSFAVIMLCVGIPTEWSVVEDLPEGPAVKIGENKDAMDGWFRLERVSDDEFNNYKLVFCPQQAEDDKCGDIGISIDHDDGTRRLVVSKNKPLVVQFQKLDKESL

T2: Kunitz trypsin inhibitor from soybeans, P01070
T2 chain: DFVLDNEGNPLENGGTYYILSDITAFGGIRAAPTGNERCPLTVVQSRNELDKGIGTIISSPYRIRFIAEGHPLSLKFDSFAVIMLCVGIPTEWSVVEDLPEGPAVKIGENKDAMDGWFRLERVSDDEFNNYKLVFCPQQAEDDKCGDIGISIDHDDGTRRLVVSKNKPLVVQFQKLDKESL


Legend:
[1] = target: Kunitz trypsin inhibitor from soybeans (soybean) (UniProt P01070); experiment: cell-based or functional assay
[2] = target: T1, Kunitz trypsin inhibitor from soybeans
[3] = target: T2, Kunitz trypsin inhibitor from soybeans, …

Molecule | Remaining TI activity (%) [3] | other results
Albumin (control) |  | Remaining TI activity (%) [1]: 100%
Bromelain |  | Remaining TI activity (%) [2]: 30%
Papain (protein) IPEYVDWRQKGAVTPVKNQGSCGSCWAFSAVVTIEGIIKIRTGNLNEYSEQELLDCDRRSYGCNGGYPWSALQLVAQYGIHYRNTYPYEGVQRYCRSREKGPYAAKTDGVRQVQPYNEGALLYSIANQPVSVVLEAAGKDFQLYRGGIFVGPCGNKVDHAVAAVGYGPNYILIKNSWGTGWGENGYIRIKRGTGNSYGVCGLYTSSFYPVKN | 25% | 
cysteine proteinase encoded by Aspergillus niger gene nr 28 (protein) MSKLSAAISKLSLSTIATTLLLLTPPTTAYFYKYPALFVYKDTNCTDISFSLVYPSLGNCNGGYYDYAGSFQMFNIDAAYTCNGSDSTLMFEMYNSSGSDCGDESDLLFRQPVTEECTVADVESPGPLEMPVWFELGSLLGNCGGMAGTMLFGVGILEGGLETKLYWKCYSSRLNTSVTVHRLSLILSMGCTSVSDSYNELAAAHYYEDL | 26% | 

From US20050064403A1
